Test results reported in US20240116985A1 (published 2024).
Starred links: 1 amine or outer side, 2 acyl side, 3 side chain; linkers in the order of their positions; H or OH if unused. Positions of bridges follow the written chain, without caps; N, C: chain ends. Non-standard residues stand in square brackets, D forms with d. Primed or numbered codes have the meaning given here. B5(29) = 2-amino-2-(pent-4-en-1-yl)hept-6-enoic acid (2,2-bis(4-pentenyl)glycine), stitching residue bearing both staples, C=CCCCC(CCCC=C)(N[*:1])C(=O)[*:2]; PyrS2″ = (S)-3-amino-1-((pent-4-en-1-yloxy)carbonyl)pyrrolidine-3-carboxylic acid (stapling residue), C=CCCCOC(=O)N1CC[C@@](N[*:1])(C(=O)[*:2])C1; B5(4) = 2,2-bis(4-pentenyl)glycine = 2-amino-2-(pent-4-en-1-yl)hept-6-enoic acid (stitching residue), C=CCCCC(CCCC=C)(N[*:1])C(=O)[*:2]; B5(5) = 2,2-bis(4-pentenyl)glycine, 2-amino-2-(pent-4-en-1-yl)hept-6-enoic acid (stitching residue), C=CCCCC(CCCC=C)(N[*:1])C(=O)[*:2]; B5(6) = 2-amino-2-(pent-4-en-1-yl)hept-6-enoic acid (bis(4-pentenyl)glycine), stitching residue, C=CCCCC(CCCC=C)(N[*:1])C(=O)[*:2]; TfeGA = (S)-2-amino-3-((carboxymethyl)(2,2,2-trifluoroethyl)amino)propanoic acid, O=C([C@H](CN(CC(=O)[*:3])CC(F)(F)F)N[*:1])[*:2]; PyrS2 = (S)-3-amino-1-((pent-4-en-1-yloxy)carbonyl)pyrrolidine-3-carboxylic acid, C=CCCCOC(=O)N1CC[C@@](N[*:1])(C(=O)[*:2])C1; B5(19) = 2-amino-2-(pent-4-en-1-yl)hept-6-enoic acid (bis(4-pentenyl)glycine), C=CCCCC(CCCC=C)(N[*:1])C(=O)[*:2]; B5(3) = 2,2-bis(4-pentenyl)glycine (stitching residue), C=CCCCC(CCCC=C)(N[*:1])C(=O)[*:2]; AspSH = (S)-2-amino-4-mercapto-4-oxobutanoic acid, O=C(C[C@H](N[*:1])C(=O)[*:2])S[*:3]; B5 = 2-amino-2-(pent-4-en-1-yl)hept-6-enoic acid, C=CCCCC(CCCC=C)(N[*:1])C(=O)[*:2]; AcLys″ = N6-acetyl-lysine, CC(=O)NCCCC[C@H](N[*:1])C(=O)[*:2]; Phe(F5) = N[C@@H](Cc1c(F)c(F)c(F)c(F)c1F)C(=O)O; Phe(2-CF3) = N[C@@H](Cc1ccccc1C(F)(F)F)C(=O)O; Phe(2-Cl) = N[C@@H](Cc1ccccc1Cl)C(=O)O; hLeu(5-Me) = CC(C)(C)CC[C@H](N)C(=O)O; Bta = N[C@@H](Cc1csc2ccccc12)C(=O)O; hTyr = N[C@@H](CCc1ccc(O)cc1)C(=O)O; αAllylPro = C=CC[C@@]1(C(=O)O)CCCN1; tBuAla = CC(C)(C)C[C@H](N)C(=O)O; 3Thi = N[C@@H](Cc1ccsc1)C(=O)O; Cha = N[C@@H](CC1CCCCC1)C(=O)O; S8 = C=CCCCCCC[C@](C)(N)C(=O)O; PyrS2(4) = not defined here; TfeGA″ = not defined here; hSer = N[C@@H](CCO)C(=O)O; Nle = CCCC[C@H](N)C(=O)O

T1: B-cat-Halo (UniProt P35222 1-781)
T1 sequence (looked up): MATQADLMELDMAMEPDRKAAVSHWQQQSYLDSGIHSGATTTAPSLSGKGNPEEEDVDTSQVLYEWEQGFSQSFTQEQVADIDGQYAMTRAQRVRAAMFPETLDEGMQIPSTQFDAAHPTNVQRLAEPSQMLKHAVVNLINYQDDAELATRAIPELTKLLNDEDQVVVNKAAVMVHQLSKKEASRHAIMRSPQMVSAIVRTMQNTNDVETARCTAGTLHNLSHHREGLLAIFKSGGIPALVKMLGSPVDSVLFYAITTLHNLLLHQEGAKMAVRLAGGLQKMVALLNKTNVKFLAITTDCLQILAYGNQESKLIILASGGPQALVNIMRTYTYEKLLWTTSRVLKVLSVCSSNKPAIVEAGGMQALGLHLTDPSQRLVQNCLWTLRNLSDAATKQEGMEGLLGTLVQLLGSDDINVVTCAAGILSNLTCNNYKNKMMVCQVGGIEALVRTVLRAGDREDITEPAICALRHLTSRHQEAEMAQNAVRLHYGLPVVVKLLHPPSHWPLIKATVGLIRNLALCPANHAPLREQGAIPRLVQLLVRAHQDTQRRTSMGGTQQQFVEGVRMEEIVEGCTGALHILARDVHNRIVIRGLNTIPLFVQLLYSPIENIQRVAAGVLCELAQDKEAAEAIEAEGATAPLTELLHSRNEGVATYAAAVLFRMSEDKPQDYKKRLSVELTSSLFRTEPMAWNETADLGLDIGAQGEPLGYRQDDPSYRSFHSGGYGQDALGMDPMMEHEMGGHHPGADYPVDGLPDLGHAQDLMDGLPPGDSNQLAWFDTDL

T2: B-cat-Halo (UniProt P35222 2-781)
T2 sequence (looked up): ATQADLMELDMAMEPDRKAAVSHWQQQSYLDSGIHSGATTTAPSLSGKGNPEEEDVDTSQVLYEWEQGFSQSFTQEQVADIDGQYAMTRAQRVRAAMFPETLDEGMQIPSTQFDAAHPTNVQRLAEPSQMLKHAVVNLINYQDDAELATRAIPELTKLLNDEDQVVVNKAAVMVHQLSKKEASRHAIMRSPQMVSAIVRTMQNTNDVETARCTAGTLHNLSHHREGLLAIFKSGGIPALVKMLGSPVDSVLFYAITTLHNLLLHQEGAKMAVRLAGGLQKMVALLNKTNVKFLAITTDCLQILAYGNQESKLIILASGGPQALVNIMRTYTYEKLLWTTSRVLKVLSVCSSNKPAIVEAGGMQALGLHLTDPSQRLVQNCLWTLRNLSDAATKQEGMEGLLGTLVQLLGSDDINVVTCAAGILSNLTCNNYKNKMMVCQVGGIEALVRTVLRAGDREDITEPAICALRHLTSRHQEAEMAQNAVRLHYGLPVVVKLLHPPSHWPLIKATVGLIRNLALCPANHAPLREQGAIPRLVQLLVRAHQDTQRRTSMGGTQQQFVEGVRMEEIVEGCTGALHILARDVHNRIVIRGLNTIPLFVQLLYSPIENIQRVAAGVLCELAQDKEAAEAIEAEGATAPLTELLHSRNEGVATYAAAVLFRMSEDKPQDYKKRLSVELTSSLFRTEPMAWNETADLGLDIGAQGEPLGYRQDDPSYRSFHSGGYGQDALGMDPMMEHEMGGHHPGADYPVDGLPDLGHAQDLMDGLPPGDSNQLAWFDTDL

T3: full-length beta-Catenin (Uniprot ID P35222) (Homo sapiens (Human), UniProt P35222 2-781)
T3 construct: No tag is stated for the FP assay; also called bCat; B-Catenin
T3 sequence: T2 sequence (looked up)

B1: I-1793 (peptide)
peptide: Ac-[αAllylPro]D[tBuAla][B5(19)]DHAAF[hSer][PyrS2][3Thi][Bta]Q-NH2
modifications: staple 1-4, 4-11; not fully specified; printed as Ac-PL3-Asp-Npg-B5-Asp-His-Ala-Ala-Phe-Hse-PyrS2-3Thi-BztA-Gln-NH2
B2: I-1796 (peptide)
peptide: Ac-[αAllylPro]D[tBuAla][B5(3)]DHAAFL[PyrS2″][3Thi][Bta]Q-NH2
modifications: staple 1-4, 4-11; not fully specified; printed as Ac-PL3-Asp-Npg-B5-Asp-His-Ala-Ala-Phe-Leu-PyrS2-3Thi-BztA-Gln-NH2
B3: I-1794 (peptide)
peptide: Ac-[αAllylPro]D[tBuAla][B5(3)]DHAAF[hSer][PyrS2″][3Thi][Bta]Q-NH2
modifications: staple 1-4, 4-11; not fully specified; printed as Ac-PL3-Asp-Npg-B5-Asp-His-Ala-Ala-Phe-Hse-PyrS2-3Thi-BztA-Gln-NH2
B4: I-494 (peptide)
peptide: XDAXDEAAFQXFXQ
modifications: not fully specified; Ac-PL3-Asp-Ala-B5-Asp-Glu-Ala-Ala-Phe-Gln-S8-Phe-BztA-DGIn-NH2 (so in the source); D-Gln at 14); N-terminal acetyl, C-terminal amide; PL3(1)-B5(4) and B5(4)-S8(11) stapled by olefin metathesis; BztA at 13
notes: Stapled (stitched) peptide composition
B5: I-476 (peptide)
peptide: XDIXDEAAFNXFXQ
modifications: not fully specified; Ac-PL3-Asp-aIle-B5-Asp-Glu-Ala-Ala-Phe-Asn-S8-Phe-BztA-Gln-NH2; N-terminal acetyl, C-terminal amide; PL3(1)-B5(4) and B5(4)-S8(11) stapled by olefin metathesis; aIle at 3; BztA at 13
notes: Stapled peptide; this is the later eluting HPLC peak (staple isomer composition)
B6: I-479 (peptide)
peptide: XDAXDEAAFNXFXH
modifications: not fully specified; Ac-PL3-Asp-Ala-B5-Asp-Glu-Ala-Ala-Phe-Asn-S8-Phe-BztA-1MeH-NH2; N-terminal acetyl, C-terminal amide; PL3(1)-B5(4) and B5(4)-S8(11) stapled by olefin metathesis; BztA at 13; 1MeH at 14
notes: as for B5
B7: I-478 (peptide)
peptide: XDAXDEAAFNXFXH
modifications: not fully specified; Ac-PL3-Asp-Ala-B5-Asp-Glu-Ala-Ala-Phe-Asn-S8-Phe-BztA-1MeH-NH2; N-terminal acetyl, C-terminal amide; PL3(1)-B5(4) and B5(4)-S8(11) stapled by olefin metathesis; BztA at 13; 1MeH at 14
notes: Stapled peptide; this is the earlier eluting HPLC peak (staple isomer composition)
B8: I-475 (peptide)
peptide: XDIXDEAAFNXFXQ
modifications: not fully specified; Ac-PL3-Asp-aIle-B5-Asp-Glu-Ala-Ala-Phe-Asn-S8-Phe-BztA-Gln-NH2; N-terminal acetyl, C-terminal amide; PL3(1)-B5(4) and B5(4)-S8(11) stapled by olefin metathesis; aIle at 3; BztA at 13
notes: as for B7
B9: I-495 (peptide)
peptide: XDIXDEAAFQXFXN
modifications: not fully specified; Ac-PL3-Asp-Ile-B5-Asp-Glu-Ala-Ala-Phe-Gln-S8-Phe-BztA-Asn-NH2; N-terminal acetyl, C-terminal amide; PL3(1)-B5(4) and B5(4)-S8(11) stapled by olefin metathesis; BztA at 13
notes: as for B4

What follows are binders tested against T1, B-cat-Halo (assay: cell-based or functional assay).

Binder	NanoBRET Abs IC50 [µM]
Ac-[αAllylPro]D[tBuAla][B5(4)]D[TfeGA]AAFL[PyrS2″][3Thi][Bta][AcLys″]-NH2 (staple 1-4, 4-11; also: -CH=CH- in each staple reduced to -CH2-CH2-) [I-1719]	27.6
Ac-[αAllylPro]D[tBuAla][B5(4)]D[TfeGA]AAFL[PyrS2″][3Thi][Bta]T-NH2 (staple 1-4, 4-11; also: -CH=CH- in each staple reduced to -CH2-CH2-) [I-1716]	21.7
Ac-[αAllylPro]D[tBuAla][B5(4)]D[TfeGA]AAFL[PyrS2″][Phe(2-CF3)][Bta]Q-NH2 (staple 1-4, 4-11; also: -CH=CH- in each staple reduced to -CH2-CH2-) [I-1714]	28.6
Ac-[αAllylPro][AspSH][tBuAla][B5]DDAAFN[PyrS2][Phe(2-Cl)][Bta]Q-NH2 (staple 1-4, 4-11; not fully specified) [I-1721]	> 20
Ac-[αAllylPro]D[tBuAla][B5(4)]D[TfeGA]AAFL[PyrS2″][3Thi][Bta]N-NH2 (staple 1-4, 4-11; also: -CH=CH- in each staple reduced to -CH2-CH2-) [I-1715]	38.4

Each binder was assayed against T2, B-cat-Halo (assay: cell-based or functional assay).

Binder	NanoBRET Abs IC50 [µM]
Ac-[αAllylPro]D[tBuAla][B5(19)]D[TfeGA]AAF[Nle][PyrS2][3Thi][Bta]Q-NH2 (staple 1-4, 4-11) [I-1776]	10.5
Ac-[αAllylPro]D[tBuAla][B5(3)]DHAAFL[PyrS2(4)][3Thi][Bta]Q-NH2 (staple 1-4, 4-11; not fully specified; reading uncertain) [I-1795]	22.8
Ac-[αAllylPro]D[tBuAla][B5(19)]D[hTyr]AAF[hSer][PyrS2][3Thi][Bta]Q-NH2 (staple 1-4, 4-11) [I-1786]	> 20
Ac-[αAllylPro]D[hLeu(5-Me)][B5(5)]D[TfeGA]AAFL[PyrS2″][3Thi][Bta]Q-NH2 (staple 1-4, 4-11) [I-1772]	6.8
Ac-[αAllylPro]D[tBuAla][B5(19)]D[Phe(F5)]AAFN[PyrS2][3Thi][Bta]Q-NH2 (staple 1-4, 4-11) [I-1790]	34.4
Ac-[αAllylPro]D[Nle][B5(19)]D[TfeGA]AAFL[PyrS2][3Thi][Bta]Q-NH2 (staple 1-4, 4-11) [I-1777]	8.7
Ac-[αAllylPro]D[tBuAla][B5(5)]D[TfeGA″]AAF[Cha][PyrS2(4)][3Thi][Bta]Q-NH2 (staple 1-4, 4-11; not fully specified; reading uncertain) [I-1774]	8.9
Ac-[αAllylPro]D[tBuAla][B5(19)]DYAAF[hSer][PyrS2][3Thi][Bta]Q-NH2 (staple 1-4, 4-11) [I-1783]	> 20
Ac-[αAllylPro]D[tBuAla][B5(19)]D[hTyr]AAFN[PyrS2][3Thi][Bta]Q-NH2 (staple 1-4, 4-11) [I-1785]	42.3
Ac-[αAllylPro]D[tBuAla][B5(5)]D[TfeGA]AAF[tBuAla][PyrS2″][3Thi][Bta]Q-NH2 (staple 1-4, 4-11) [I-1773]	8.6
Ac-[αAllylPro]D[tBuAla][B5(19)]DWAAFN[PyrS2][3Thi][Bta]Q-NH2 (staple 1-4, 4-11) [I-1788]	33.9
Ac-[αAllylPro]D[tBuAla][B5(19)]D[Phe(F5)]AAF[hSer][PyrS2][3Thi][Bta]Q-NH2 (staple 1-4, 4-11) [I-1791]	> 20
B1	> 20
B2	> 20
B3	37.7

The binders below were run against T3, full-length beta-Catenin (Uniprot ID …) (assay: fluorescence polarization competition; full-length beta-catenin with 5FAM-TCF4(10-53) probe as competitor).
Procedure: The plate was incubated protected from light for 60 minutes at 20° C. prior to read. Reads were performed on a CLARIOstar plate reader (BMG Labtech) in duplicate, and data were fitted to a 1:1 binding model with hill slope using an in-house script. All provided concentrations are final concentrations.

Binder	IC50 [nM]
B4	82
Ac-[αAllylPro]DI[B5(29)]DEAAFN[S8]F[Bta]H-NH2 (staple 1-4, 4-11, Stapled (stitched) peptide composition) [I-472]	62
B5	48
B6	27
B7	71
B8	102
B9	181
Ac-[αAllylPro]DI[B5(6)]DEAAFQ[S8]F[Bta]H-NH2 (staple 1-4, 4-11, Stapled (stitched) peptide composition) [I-471]	52
